Target: PD-L1 (on CHO-PD-L1 cells) (UniProt Q9NZQ7 19-290)
Experiment: FACS binding; Fig. 25

Sequence of PD-L1 (on CHO-PD-L1 cells) (Q9NZQ7 19-290): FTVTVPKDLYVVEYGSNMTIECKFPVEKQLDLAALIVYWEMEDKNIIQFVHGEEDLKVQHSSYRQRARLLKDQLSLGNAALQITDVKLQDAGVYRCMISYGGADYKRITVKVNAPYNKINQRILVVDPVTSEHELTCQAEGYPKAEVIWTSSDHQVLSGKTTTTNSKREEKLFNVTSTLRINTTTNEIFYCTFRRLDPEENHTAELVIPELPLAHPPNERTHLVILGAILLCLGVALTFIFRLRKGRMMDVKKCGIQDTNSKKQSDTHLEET

- EC50: 2.39 nM
B1: R1111: TIGIT_VH_IL15RA (sushi65 T2A, T81A, T86A)/TIGIT_VL_IL15/PD-L1-Fab (bispecific antibody)
chain 1: QVQLVQSGAEVKKPGSSVKVSCKASGYSFTSYWMNWVRQAPGQGLEWIGMIRPSDSETRLNQMFKDRVTITVDKSTSTAYMELSSLRSEDTAVYYCAGIHDYGHGAYWGQGTLVTVSSGGGGSGGGGSGGGGSGGGGSGIACPPPMSVEHADIWVKSYSLYSRERYICNSGFKRKAGTSSLTECVLNKATNVAHWTTPSLKCIRDPALVHQRPAPPSTVATAGVAPQPESLSPSGKEPAASSPSSNNTAATTAEPKSSDKTHTCPPCPAPELLGGPSVFLFPPKPKDTLMISRTPEVTCVVVDVSHEDPEVKFNWYVDGVEVHNAKTKPREEQYNSTYRVVSVLTVLHQDWLNGKEYKCKVSNKALPAPIEKTISKAKGQPREPQVYTLPPSREEMTKNQVSLTCRVKGFYPSDIAVEWESNGQPENNYKTTPPVLKSDGSFFLASKLTVDKSRWQQGNVFSCSVMHEALHNHYTQKSLSLSPGK
chain 2: DIQMTQSPSSLSASVGDRVTITCRASENIYSNLAWYQQKPGKSPKLLVYAASHLPDGVPSRFSGSGSGTDYSLTISSLQPEDFATYYCQHFWGTPRTFGQGTKLEIKGGGGSGGGGSGGGGSGGGGSGNWVNVISDLKKIEDLIQSMHIDATLYTESDVHPSCKVTAMKCFLLELQVISLESGDASIHNTVQDLIILANNSLSSNGNVTESGCKECEELEEKNIKEFLQSFVHIVQMFINTS
heavy: QVQLQESGPGLVKPSETLSLTCAVYGDSITSGYWNWIRKPPGKGLEYIGYISYTGSTYQNPSLKSRITMSRDTSKNQYYLKLSSVTAADTAVYYCARSRAWIRTYFDYWGQGTLVTVSSASTKGPSVFPLAPSSKSTSGGTAALGCLVKDYFPEPVTVSWNSGALTSGVHTFPAVLQSSGLYSLSSVVTVPSSSLGTQTYICNVNHKPSNTKVDKRVEPKSCDKTHTCPPCPAPELLGGPSVFLFPPKPKDTLMISRTPEVTCVVVDVSHEDPEVKFNWYVDGVEVHNAKTKPREEQYNSTYRVVSVLTVLHQDWLNGKEYKCKVSNKALPAPIEKTISKAKGQPREPQVYTLPPSREEMTKNQVSLWCLVKGFYPSDIAVEWESNGQPENNYDTTPPVLDSDGSFFLYSDLTVDKSRWQQGNVFSCSVMHEALHNHYTQKSLSLSPGK
light: DIQMTQSPSSLSASVGDRVTITCSVSSSISSSNLHWYQQKPGKAPKPWIYGTSNLASGVPSRFSGSGSGTDYTLTISSLQPEDFATYYCQQWSSYPLTFGQGTKLEIKRTVAAPSVFIFPPSDEQLKSGTASVVCLLNNFYPREAKVQWKVDNALQSGNSQESVTEQDSKDSTYSLSSTLTLSKADYEKHKVYACEVTHQGLSSPVTKSFNRGEC

Reference: patent publication US20250277023A1 (published 2025)
